Test results as given in paper PMC2656442.
Where two headings read alike, the source gives them in different places.

What was measured:
[1] = target: human RhoA (residues 1-193) (human) (UniProt P61586)
[2] = target: human Cdc42 (residues 1-191) (human) (UniProt P60953)
[3] = target: human RhoA (residues 1-193) (human) (UniProt P61586); assay: ITC
[4] = target: human Cdc42 (residues 1-191) (human) (UniProt P60953); assay: ITC
[5] = target: human RhoA (residues 1-193) (human) (UniProt P61586); assay: ITC; remark: listed apart in the source
[6] = target: human Rac1 (residues 1-192) (human) (UniProt P63000); assay: ITC
[7] = target: human Cdc42 (residues 1-191) (human) (UniProt P60953); assay: ITC; remark: listed apart in the source
[8] = target: human RhoA (residues 1-193) (human) (UniProt P61586); remark: listed apart in the source
[9] = target: human Cdc42 (residues 1-191) (human) (UniProt P60953); remark: listed apart in the source

Sequence of UniProt P61586 (P61586 whole entry, the tested form may be a part): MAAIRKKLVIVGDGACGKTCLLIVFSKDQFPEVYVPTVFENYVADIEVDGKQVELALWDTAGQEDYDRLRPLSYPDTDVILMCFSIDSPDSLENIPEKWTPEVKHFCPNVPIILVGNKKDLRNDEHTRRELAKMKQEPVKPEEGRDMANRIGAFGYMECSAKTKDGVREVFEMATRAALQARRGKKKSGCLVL
Sequence of UniProt P60953 (P60953 whole entry, the tested form may be a part): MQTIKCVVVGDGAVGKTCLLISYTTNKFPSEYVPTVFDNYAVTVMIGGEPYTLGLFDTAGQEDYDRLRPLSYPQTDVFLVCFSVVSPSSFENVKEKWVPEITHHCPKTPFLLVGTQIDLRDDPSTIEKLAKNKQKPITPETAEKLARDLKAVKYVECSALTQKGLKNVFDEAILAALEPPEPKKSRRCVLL

Row | KM of GAP-stimulated GTP hydrolysis (MESG/PNP assay), GTP·Mg2+-loaded RhoA [1] [µM] | kcat of GAP-stimulated GTP hydrolysis (MESG/PNP assay), GTP·Mg2+-loaded RhoA [1] [s⁻¹] | kcat/KM of GAP-stimulated GTP hydrolysis (MESG/PNP assay), GTP·Mg2+-loaded RhoA [1] [M⁻¹ s⁻¹] | kcat of GAP-stimulated GTP hydrolysis (MESG/PNP assay), GTP·Mg2+-loaded Cdc42 [2] [s⁻¹] | Ka [3] [M⁻¹] | dH [3] [kcal/mol] | Ka [4] [M⁻¹] | dH [4] [kcal/mol] | Ka [5] [M⁻¹] | dH [5] [kcal/mol] | stoichiometry N [5] | fold lower KA than for Cdc42 (m1 with m18) [6] [fold] | fold lower KA than for RhoA (m1 with m19) [6] [fold] | Ka [7] [M⁻¹] | dH [7] [kcal/mol] | stoichiometry N [7] | KM of GAP-stimulated GTP hydrolysis (MESG/PNP assay), GTP·Mg2+-loaded RhoA [8] [µM] | kcat/KM of GAP-stimulated GTP hydrolysis (MESG/PNP assay), GTP·Mg2+-loaded RhoA [8] [M⁻¹ s⁻¹] | KM of GAP-stimulated GTP hydrolysis (MESG/PNP assay), GTP·Mg2+-loaded Cdc42 [9] [µM] | kcat/KM of GAP-stimulated GTP hydrolysis (MESG/PNP assay), GTP·Mg2+-loaded Cdc42 [9] [M⁻¹ s⁻¹] | Substance
1 | – | – | – | – | – | – | – | – | 255000 | 14.4 | – | – | – | 946000 | 14 | – | 18.2 | 41700 | 15 | 333000 | GAP^Graf I358A (domain or fragment)
2 | – | – | – | – | – | – | – | – | 93000 | 10.3 | – | – | – | 773000 | 13.8 | – | 25 | 48300 | 11 | 278000 | GAP^Graf R266A (domain or fragment)
3 | – | – | – | – | – | – | – | – | 93000 | 14.5 | – | – | – | 203000 | 16.9 | – | 31.3 | 26700 | 5.9 | 243000 | GAP^Graf V338A (domain or fragment)

The next lines start with the substance.

Row | Substance | KM of GAP-stimulated GTP hydrolysis (MESG/PNP assay), GTP·Mg2+-loaded RhoA [1] [µM] | kcat of GAP-stimulated GTP hydrolysis (MESG/PNP assay), GTP·Mg2+-loaded RhoA [1] [s⁻¹] | kcat/KM of GAP-stimulated GTP hydrolysis (MESG/PNP assay), GTP·Mg2+-loaded RhoA [1] [M⁻¹ s⁻¹] | kcat of GAP-stimulated GTP hydrolysis (MESG/PNP assay), GTP·Mg2+-loaded Cdc42 [2] [s⁻¹] | Ka [3] [M⁻¹] | dH [3] [kcal/mol] | Ka [4] [M⁻¹] | dH [4] [kcal/mol] | Ka [5] [M⁻¹] | dH [5] [kcal/mol] | stoichiometry N [5] | fold lower KA than for Cdc42 (m1 with m18) [6] [fold] | fold lower KA than for RhoA (m1 with m19) [6] [fold] | Ka [7] [M⁻¹] | dH [7] [kcal/mol] | stoichiometry N [7] | KM of GAP-stimulated GTP hydrolysis (MESG/PNP assay), GTP·Mg2+-loaded RhoA [8] [µM] | kcat/KM of GAP-stimulated GTP hydrolysis (MESG/PNP assay), GTP·Mg2+-loaded RhoA [8] [M⁻¹ s⁻¹] | KM of GAP-stimulated GTP hydrolysis (MESG/PNP assay), GTP·Mg2+-loaded Cdc42 [9] [µM] | kcat/KM of GAP-stimulated GTP hydrolysis (MESG/PNP assay), GTP·Mg2+-loaded Cdc42 [9] [M⁻¹ s⁻¹]
4 | GAP domain of Graf (GTPase Regulator Associated with Focal Adhesion Kinase), wild type (domain or fragment) | 6.8 | 1.46 | 217000 | 3.65 | 33800 | 1.6 | 26100 | 5.47 | 554000 | 13 | 1 | 100 | > 20 | 2.42e+06 | 15 | 1 | – | – | – | –
5 | GAP^Graf E253A (domain or fragment) | – | – | – | – | – | – | – | – | 456000 | 10.1 | – | – | – | 298000 | 7.48 | – | 11.3 | 330000 | 19.9 | 532000
6 | GAP^Graf E253K (domain or fragment) | – | – | – | – | – | – | – | – | 643000 | 12 | – | – | – | 445000 | 10.5 | – | 8.8 | 413000 | 10.2 | 457000
7 | GAP^Graf I358E (domain or fragment) | – | – | – | – | – | – | – | – | 33000 | 3.92 | – | – | – | 97000 | 4.64 | – | – | – | 12.4 | –
8 | GAP^Graf N225A (domain or fragment) | – | – | – | – | – | – | – | – | 303000 | 10.7 | – | – | – | 1.56e+06 | 9.85 | – | 24.4 | 205000 | 8 | 205000
9 | GAP^Graf V224K (domain or fragment) | – | – | – | – | – | – | – | – | 338000 | 16.8 | – | – | – | 92000 | 10.5 | – | 10.3 | – | 10.2 | 457000
10 | GAP^Graf V338L (domain or fragment) | – | – | – | – | – | – | – | – | 220000 | 9.8 | – | – | – | 1.18e+06 | 15.9 | – | 8.7 | 33300 | 2.4 | 522000
